Assay results taken from paper PMC9588639 (Journal of thrombosis and haemostasis : JTH, 2022).
One block for each molecule: values may come before it.

Experiments:
Assay in all cases: BLI
[1] = molecular target: mouse GPIbα LBD (mLBD, residues 1-290) (mouse)
[2] = molecular target: human GPIbα LBD (mature protein residues 1-290) (human)
[3] = molecular target: human GPIbα LBD (mature protein residues 1-290) W230L (human, UniProt P07359 17-306, W230L)
Chain of human GPIbα LBD (mature protein residues 1-290) W230L (P07359 17-306 W246L): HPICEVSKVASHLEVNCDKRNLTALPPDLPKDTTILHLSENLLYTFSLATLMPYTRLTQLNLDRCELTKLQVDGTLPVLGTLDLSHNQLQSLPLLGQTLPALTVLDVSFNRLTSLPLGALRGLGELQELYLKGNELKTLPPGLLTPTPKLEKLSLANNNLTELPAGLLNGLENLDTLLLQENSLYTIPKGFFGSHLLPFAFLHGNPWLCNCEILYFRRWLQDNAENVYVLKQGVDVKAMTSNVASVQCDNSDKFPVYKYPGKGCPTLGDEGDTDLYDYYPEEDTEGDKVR

Chain of mouse GPIbα LBD (mLBD, residues 1-290) (mouse) (O35930 whole entry, the tested form may be a part): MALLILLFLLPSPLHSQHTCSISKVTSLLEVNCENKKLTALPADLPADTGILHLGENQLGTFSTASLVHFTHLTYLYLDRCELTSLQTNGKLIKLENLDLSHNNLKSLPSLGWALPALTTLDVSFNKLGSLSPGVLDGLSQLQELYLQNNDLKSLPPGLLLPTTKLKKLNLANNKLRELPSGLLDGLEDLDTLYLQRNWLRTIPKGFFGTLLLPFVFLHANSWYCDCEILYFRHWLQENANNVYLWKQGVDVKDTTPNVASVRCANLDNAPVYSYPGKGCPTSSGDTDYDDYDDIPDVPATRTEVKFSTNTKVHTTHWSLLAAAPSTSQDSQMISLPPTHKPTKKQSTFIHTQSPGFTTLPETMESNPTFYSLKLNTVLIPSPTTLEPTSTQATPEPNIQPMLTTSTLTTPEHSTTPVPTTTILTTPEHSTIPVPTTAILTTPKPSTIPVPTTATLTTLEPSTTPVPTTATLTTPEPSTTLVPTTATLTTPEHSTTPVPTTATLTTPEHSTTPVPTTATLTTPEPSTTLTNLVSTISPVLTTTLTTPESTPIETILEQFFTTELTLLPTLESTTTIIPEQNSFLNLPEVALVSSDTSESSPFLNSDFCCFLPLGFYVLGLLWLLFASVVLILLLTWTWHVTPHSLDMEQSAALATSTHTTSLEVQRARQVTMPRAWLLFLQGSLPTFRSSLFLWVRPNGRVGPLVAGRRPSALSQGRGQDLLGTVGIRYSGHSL

- Kd [1]: 386 nM
Molecule: mouse tAIM-A1 (containing VWF residues 1261-1472) (from UniProt Q8CIZ8 1261-1472) (domain or fragment)

- Kd [2]: 515 nM
- Kd [1]: 1000 nM
- binding result [3]: binds
B1: recombinant mouse AIM-A1 protein (mouse VWF residues 1238-1493) (domain or fragment, UniProt Q8CIZ8 1238-1493, looked up)
chain: QEPGGLVAPPTDAPVSSTTPYVEDTPEPPLHNFYCSKLLDLVFLLDGSSMLSEAEFEVLKAFVVGMMERLHISQKRIRVAVVEYHDGSRAYLELKARKRPSELRRITSQIKYTGSQVASTSEVLKYTLFQIFGKIDRPEASHITLLLTASQEPPRMARNLVRYVQGLKKKKVIVIPVGIGPHASLKQIRLIEKQAPENKAFLLSGVDELEQRRDEIVSYLCDLAPEAPAPTQPPQVAHVTVSPGIAGISSPGPKRK
